T1: Recombinant human B7-1 Fc Chimera (RnD Systems, 140-B1-100), biotinylated (human, UniProt P33681 35-242, biotinylated (ECL biotinylation module, GE Healthcare, at a quarter of the kit recommended level))
T1 construct: Bought reagent; also called biotinylated B7-1; Fc part of the bought chimera not given
T1 sequence (looked up): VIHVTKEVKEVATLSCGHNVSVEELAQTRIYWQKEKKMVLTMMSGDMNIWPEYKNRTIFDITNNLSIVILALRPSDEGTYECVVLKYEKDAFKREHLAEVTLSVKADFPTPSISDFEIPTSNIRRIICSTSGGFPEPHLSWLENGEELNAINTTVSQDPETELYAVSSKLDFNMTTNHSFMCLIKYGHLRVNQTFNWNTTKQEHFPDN


Key:
human TNFα = target: T2, human TNFα (human, UniProt P01375 77-233); experiment: assay not stated (description of the dAb in Example 11)
T2 construct: also called TNF ligand; TNFα (Peprotech)

[1] = target: T1, Recombinant human B7-1 Fc Chimera (RnD …); experiment: bridging ELISA: coated VEGFR2 Fc, titrated control, detection with biotinylated B7-1 Fc and ExtrAvidin peroxidase

T2 sequence (P01375 77-233 limits assumed): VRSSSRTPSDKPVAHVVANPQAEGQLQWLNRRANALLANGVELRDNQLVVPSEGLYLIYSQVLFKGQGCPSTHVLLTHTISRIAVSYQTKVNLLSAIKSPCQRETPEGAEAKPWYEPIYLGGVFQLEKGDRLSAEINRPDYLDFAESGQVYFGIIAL

Row | Kd (human TNFα) | binding result [1] | Binder
1 | ~8 nM |  | PEP1-5-19 (anti-TNFα dAb) (other, Vk domain antibody (dAb), monomer; also called Anti-TNFα Vk dAb (PEP1-5-19)) VL: DIQMTQSPSSLSASVGDRVTITCRASQSIDSYLHWYQQKPGKAPKLLIYSASELQSGVPSRFSGSGSGTDFTLTISSLQPEDFATYYCQQVVWRPFTFGQGTKVEIKR
2 |  | no binding | BPC1801 (bispecific IGF1R-VEGFR2 antigen binding construct) (bispecific antibody, human IgG1, kappa, Negative control of the VEGFR2/B7-1 bridging ELISA) heavy: not shown light: DIVMTQSPLSLPVTPGEPASISCRSSQSIVQSNGDTYLEWYLQKPGQSPQLLIYRVSNRFSGVPDRFSGSGSGTDFTLKISRVEAEDVGVYYCFQGSHVPYTFGQGTKLEIKRTVAAPSVFIFPPSDEQLKSGTASVVCLLNNFYPREAKVQWKVDNALQSGNSQESVTEQDSKDSTYSLSSTLTLSKADYEKHKVYACEVTHQGLSSPVTKSFNRGEC
